# Results: patent US20190284262A1 (Memorial Sloan Kettering, published 2019)
# Assays:
# [1] = target: T1, T2+EW (Homo sapiens, UniProt A*02:01); test: flow cytometry, phage on T2 + EW peptide; secondary only 310, unstained 93
# T1 construct: on the surface of T2 cells; irrelevant control peptide; also called EW peptide/HLA-A*02:01 complex on T2 cells; T2 pulsed with EW peptide
# [2] = target: T2, HLA-A*02:01 on T2 cells alone (no peptide added) (human); test: flow cytometry, phage on T2 without peptide; secondary only 320, unstained 91.4
# T2 construct: TAP-deficient T2 cells without pulsed peptide; negative control target, and the HLA molecule whose stabilisation by peptides is read in the T2 stabilization assay; also called HLA-A*02 molecule; HLA-A2 molecule
# [3] = target: T3, Foxp3-7 peptide/HLA-A*02:01 complex on the cell surface (human); test: flow cytometry, phage on T2 + Foxp3-7 peptide; secondary only 318, unstained 95.8
# T3 construct: also called Foxp3-7/HLA-A2 complex
# [4] = target: T2, HLA-A*02:01 on T2 cells alone (no …); test: flow cytometry, phage on T2 without peptide
# [5] = target: T4, R3 (RHAMM-R3) peptide/HLA-A*02:01 complex on T2 cells (human); test: flow cytometry, phage on T2 + R3 peptide; secondary only 126, unstained 94.4
# T4 construct: Control target of the phage staining of T2 cells; also called T2 cells pulsed with R3 peptide; RHAMM 3 (R3)
# [6] = target: T2, HLA-A*02:01 on T2 cells alone (no …); test: flow cytometry, phage on T2 without peptide; secondary only 118, unstained 95.2
# [7] = target: T4, R3 (RHAMM-R3) peptide/HLA-A*02:01 …; test: flow cytometry, phage on T2 + R3 peptide; secondary only 123, unstained 99.8
# [8] = target: T3, Foxp3-7 peptide/HLA-A*02:01 complex on …; test: flow cytometry, phage on T2 + Foxp3-7 peptide; secondary only 133, unstained 103
# [9] = target: T2, HLA-A*02:01 on T2 cells alone (no …); test: flow cytometry, phage on T2 without peptide; secondary only 100, unstained 99.5
# [10] = target: T3, Foxp3-7 peptide/HLA-A*02:01 complex on …; test: flow cytometry, phage on T2 + Foxp3-7 peptide; secondary only 116, unstained 93.8
# [11] = target: T2, HLA-A*02:01 on T2 cells alone (no …); test: flow cytometry, phage on T2 cells
# [12] = target: T2, HLA-A*02:01 on T2 cells alone (no …); test: flow cytometry, phage on T2 without peptide; secondary only 121, unstained 106
# [13] = target: T1, T2+EW; test: flow cytometry, phage on T2 + EW peptide; secondary only 113, unstained 94.7
# [14] = target: T3, Foxp3-7 peptide/HLA-A*02:01 complex on …; test: flow cytometry, phage on T2 + Foxp3-7 peptide; secondary only 104, unstained 81.7
# [15] = target: T4, R3 (RHAMM-R3) peptide/HLA-A*02:01 …; test: flow cytometry, phage on T2 + R3 peptide (as the table names the samples); secondary only 109, unstained 80.9
binder,measurement,setting,value
"#30 (scFv, also called EXT017-30; EXT017-30 scFv phage clone) scFv: SYVLTQPPSVSVAPGQTARMTCEGSNLGSKSVHWYQQKPGQAPVLVVHDDSDRPSGIPDRFSGSKSGNTATLTISRVEAGDEADYYCQVWHSSSDHYVFGTATKVTVLGSRGGGGSGGGGSGGGGSLEMAQVQLVQSGAEVKKPGASVKVSCKASGYTFTNYYIHWVRQAPGQGLEWMGIIRPSGGITNYAQKFQGRVSMTRDTSTSTVYMELSSLRSEDTAVYYCARSWHENSGVDSWGQGTLVTVSSTSGQAGQHHHHHHGAYPYDVPDYAS",Median:FITC-A,[1],378
same,Median:FITC-A,[2],354
same,Median:FITC-A,[3],1130
"(FoxP2)_#8 (scFv, also called EXT019-8; EXT019-08 scFv phage clone) scFv (VL-linker-VH-His/HA tag): QSVLTQPPSVSEAPRQRVTISCSGSSSNIGNNAVNWYQQLPGKAPKLLIYYDDLLPSGVSDRFSGSKSGTSASLAISGLQSEDEADYYCAAWDDSLNGPVFGTGTKVTVLGSRGGGGSGGGGSGGGGSLEMAEVQLVQSGAEVKKPGASVKVSCKASGYNFTSYGISWVRQAPGQGLEWMGWISAYNGNTNYAQKLQGRVTMTTDTSTSTAYMELRSLRSDDTAVYYCARDWDYDFLTGWDGMDVWGQGTTVTVSSTSGQAGQHHHHHHGAYPYDVPDYAS",binding result,[4],no binding
same,Median:FITC-A,[5],142
same,Median:FITC-A,[6],141
"(FoxP2)_#9 (scFv, also called EXT019-9; EXT019-09 scFv phage clone) scFv (VL-linker-VH-His/HA tag): SYELTQPPSVSVAPGKTARITCGGNNIGSKSVHWYQQKPGQAPVLVIYYDSDRPSGIPERFSGSNSGNTATLTISRVEAGDEADYYCQVWDSSSDHWVFGGGTKLTVLGSRGGGGSGGGGSGGGGSLEMAQVQLVQSGGGLVQPGGSLKLSCAASGFAFSGSSLHWVRQASGKGLEWVGRITSKAYNYATLYAASVKGRFTISRDDSKNTAYLQMNSLQTEDTAVYYCTQTGDSSAYWGQGTLVTVSSTSGQAGQHHHHHHGAYPYDVPDYAS",binding result,[4],no binding
same,Median:FITC-A,[5],148
same,Median:FITC-A,[6],140
"(FoxP2)_#15 (scFv, also called EXT019-15 scFv phage clone) scFv (VL-linker-VH-His/HA tag): SYVLTQPPSVSVAPGETASITCGANNIGSESVHWYQQKSGQAPVLVIYYDSDRPSGIPERFSGSNSDNTATLTISRVEAGDEADYYCQVWDHINDHYVFGSGTKVTVLGSRGGGGSGGGGSGGGGSLEMAEVQLVESGGGLAQPGGSLRLSCAASGFSFSNYAMSWVRQAPGTGLEWVAGISGRGGSIHYADSVKGRFTISRDNSQSTVFLQMNNLGAEDTAIYYCAKSSEDYYFYHMDAWGIGTTVTVSSTSGQAGQHHHHHHGAYPYDVPDYAS",binding result,[4],no binding
same,Median:FITC-A,[5],145
same,Median:FITC-A,[6],145
"(FoxP2)_#20 (scFv, also called EXT019-20 scFv phage clone) scFv (VL-linker-VH-His/HA tag): SYVLTQPPSVSVAPGKTARITCGGNNIGSKSVHWYQQKPGQAPVLVIYYDSDRPSGIPERFSGSNSGNTATLTISRVEAGDEADYYCQVWDSSSDRVVFGGGTKLTVLGSRGGGGSGGGGSGGGGSLEMAQVQLQQSGPGLVKPSQTLSLTCAISGDSISSKSAAWNWIRQSPSRGLEWLGRTYYRSKWYYEYAPSVRSRITINRDTSKNQFSLQLNSVTPEDTAVYYCARSTGTFDYWGQGTLVTVSSTSGQAGQHHHHHHGAYPYDVPDYAS",binding result,[4],no binding
same,Median:FITC-A,[5],148
same,Median:FITC-A,[6],149
"(FoxP2)_#4 (scFv, also called EXT019-4; EXT019-04 scFv phage clone) scFv (VL-linker-VH-His/HA tag): QPVLTQPPSVSVAPGKTARITCGGNNIGSKSVHWYQQKPGQAPVLVIYYDSDRPSGIPERFSGSNSGNTATLTISRVEAGDEADYYCQVWDSSSDHPVFGGGTKLTVLGSRGGGGSGGGGSGGGGSLEMAQVQLVQSGAEVKKPGSSVKVSCKASGGTFSSYAISWVRQAPGQGLEWMGGIIPIFGTANYAQKFQGRVTITADESTSTAYMELSSLRSEDTAVYYCARSSYWWTSDRWGQGTLVTVSSTSGQAGQHHHHHHGAYPYDVPDYAS",binding result,[4],no binding
same,Median:FITC-A,[5],145
same,Median:FITC-A,[6],147
"(FoxP2)_#13 (scFv, also called EXT019-13 scFv phage clone) scFv (VL-linker-VH-His/HA tag): LPVLTQPPSVSVAPGKTARITCGGNNIGSKSVHWYQQKPGQAPVLVIYYDSDRPSGIPERFSGSNSGNTATLTISRVEAGDEADYYCQVWDSSSAYVFGTGTKVTVLGSRGGGGSGGGGSGGGGSLEMAQVQLQQSGPGLVKPSQTLSLTCAISGDSVSSNSAAWNWIRQSPSRGLEWLGRTYYRSKWYNDYAVSVKSRITINPDTSKNQFSLQLNSVTPEDTAVYYCARYYSTSLDSWGQGTLVTVSSTSGQAGQHHHHHHGAYPYDVPDYAS",binding result,[4],no binding
same,Median:FITC-A,[5],141
same,Median:FITC-A,[6],143
"(FoxP2)_#6 (scFv, also called EXT019-6; EXT019-06 scFv phage clone) scFv (VL-linker-VH-His/HA tag): QSVVTQPPSVSGAPGQGVTIPCTGSSSNIGAGYDVHWYQQLPGTAPKLLIYGNNNRPSGVPDRFSGSRSGSSASLAITGLQAEDEADYYCQSYDSSLSDVVFGGGTKLTVLGSRGGGGSGGGGSGGGGSLEMAEVQLVQSGAEVKKPGESLKISCKGSGYNFASEWIGWVRQMPGKGLEWMGLIYPAESEITYSPSFQGQVTISVDKSISTAYLQWSSLKASDTAMYYCARAWDANYIYMDIWGQGTLVTVSSTSGQAGQHHHHHHGAYPYDVPDYAS",binding result,[4],no binding
same,Median:FITC-A,[5],157
same,Median:FITC-A,[6],146
"EXT017-9 scFv phage clone (scFv, also called phage clone #9) scFv: QSALTQPASASGSPGQSVTISCTGTSSDVGGYNYVSWYQQHPGKAPKLMIYEVSKRPSGVPDRFSGSKSGNTASLTVSGLQAEDEADYYCSSYAGSNNVVFGGGTKLTVLGSRGGGGSGGGGSGGGGSLEMAEVQLVQSGAEVKKPGASVKISCKASRYTFTNYYIHWVRQAPGQGLEWMGIINPSGGSTTYPQNFQGRLTMTRDTSTSTVYMELSSLRSEDTAMYYCARGWSGYDPGDFWGQGTLVTVSSTSGQAGQHHHHHHGAYPYDVPDYAS",Median:FITC-A,[7],144
same,Median:FITC-A,[8],1730
same,Median:FITC-A,[9],149
same,Median:FITC-A,[10],287
same,binding result,[11],no binding
same,Median:FITC-A,[12],150
same,Median:FITC-A,[13],151
"(FoxP2)_#12 (scFv, also called EXT019-12 scFv phage clone) scFv (VL-linker-VH-His/HA tag): SYELTQPPSVSVAPGKTARITCGGNNIGSKSVHWYQQKPGQAPVLVIYYDSDRPSGIPERFSGSNSGNTATLTISRVEAGDEADYYCQVWDSSSDHRVFGGGTKVTVLGSRGGGGSGGGGSGGGGSLEMAEVQLVESGGGLVQPGGSLRLSCAASGFTFSSYWMNWVRQAPGKGLEWVANIKQDGSEKNYVDSVKGRFTISRDNAKNSLYLQMNSLRGEDTAVYYCARYGGGPYDSWGQGTLVTVSSTSGQAGQHHHHHHGAYPYDVPDYAS",binding result,[4],no binding
same,Median:FITC-A,[5],151
same,Median:FITC-A,[6],151
"EXT017-26 scFv phage clone (scFv, also called phage clone #26) scFv: SYVLTQPPSVSVAPGQTARITCGGTDIRRKTVHWYQQKPGLAPVLVLYDDSDRPSGIPERFSGSNSGNTATLTISRVEGGDEADYYCQVWDNDNDHYVFGPGTKVTVLGSRGGGGSGGGGSGGGGSLEMAEVQLVQSGAEVKKPGASVKVSCKASGYTFTNYYIHWVRQTPGEGLEWMGIIRPSGGNTNYAQKFQGRVTMTRDTSTRTVYMELSSLRSEDTAVYYCARSWDTFSDEWGQGTLVTVSSTSGQAGQHHHHHHGAYPYDVPDYAS",Median:FITC-A,[7],144
same,Median:FITC-A,[10],410
same,Median:FITC-A,[1],375
same,binding result,[11],no binding
same,Median:FITC-A,[2],385
same,Median:FITC-A,[3],1880
same,Median:FITC-A,[12],146
"EXT017-11 scFv phage clone (scFv, also called phage clone #11) scFv: NFMLTQPHSVSESPGKTVTISCTRSSGSIASNYVQWYQQRPGSAPTTVIYEDNQRPSGVPDRFSGSIDSSSNSASLTISGLKTEDEADYYCQSYDTNNYGVIFGGGTKLTVLGSRGGGGSGGGGSGGGGSLEMAQMQLVQSGAEVKKPGASVKVSCKTSGYTFNNYYMHWVRQAPGQGLEWMGIINPSGGSTNYAQKFQGRVTMTRDTSTSTVYMELSSLRSEDTAVYYCARSFDKQDIDYWGQGTLVTVSSTSGQAGQHHHHHHGAYPYDVPDYAS",Median:FITC-A,[7],144
same,Median:FITC-A,[8],1690
same,Median:FITC-A,[9],142
same,Median:FITC-A,[10],454
same,Median:FITC-A,[14],2620
same,binding result,[11],no binding
same,Median:FITC-A,[15],119
same,Median:FITC-A,[12],143
same,Median:FITC-A,[13],143
